Data published in the supplement of paper PMC7877785.
± gives the uncertainty stated by the source.

Assay: self-splicing fitness, log relative to wild type (ln ratio); higher = more splicing; Tetrahymena group I intron in knt gene, E. coli kanamycin selection, DiMSum; sequences stand for … in CUCUCU…GGAGGGAAAAGUUAUCAGGCAUGCACCUGGUAGCUAGUCUUUAAACCAAUAGAUUGCAUCGGUUUAAAAGGCAAGACCGUCAAAUUGCGGGAAAGGGGUCAACAGCCGUUCAGUACCAAGUCUCAGGGGAAACUUUGAGAUGGCCUUGCAAAGGGUAUGGUAAUAAGCUGACGGACAUGGUCCUAACCACGCAGCCAAGUCCUAAGUCAACAGAUCUUCUGUUGAUAUGGAUGCAGUUCACAGACUAAAUGUCGGUCGGGGAAGAUGUAUUCUUCUCAUAAGAUAUAGUCGGACCUCUCCUUAAUGGGAGCUAGCGGAUGAAGUGAUGCAACACUGGAGCCGCUGGGAACUAAUUUGUAUGCGAAAGUAUAUUGAUUAGUUUUGGAGUACUCGUGGUCG
Procedure, shortened: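 Fitness was computed with DiMSum as the error-weighted combination of replicate fold changes, kanamycin versus none, each normalised to wild type. The library randomised all eight intron nucleotides of the P1ex region, with the intron placed in the knt kanamycin-resistance gene on pET-22b(+) in E. coli BL21(DE3). Six replicate transformations were grown overnight at 37°C or 30°C on LB agar with or without 25 μg/mL kanamycin, plus 100 μg/mL carbenicillin, 50 μM IPTG and 0.2% rhamnose. Pooled colonies were amplicon-sequenced on an Illumina HiSeq 2500.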

Sequence | self-splicing fitness (ln) (30 °C) | self-splicing fitness (ln) (37 °C)
GCGCAGCAAUAUUACGGGUG | -1.87 ± 0.083 | -1.65 ± 0.11
GCGCAGCAAUAUUACGUCUG | -2.4 ± 0.14 | -2.99 ± 0.3
GCGCAGCAAUAUUACGUGAC | -1.83 ± 0.095 | -1.03 ± 0.087
GCGCAGCAAUAUUACGUGCC | -3.26 ± 0.18 | -2.75 ± 0.29
GCGCAGCAAUAUUACGUGCG | -4.36 ± 0.28 | -2.7 ± 0.21
GCGCAGCAAUAUUACGUUAU | -0.78 ± 0.048 | -0.0311 ± 0.064
GCGGAGCAAUAUUACGAACU |  | -0.902 ± 0.47
GCGGAGCAAUAUUACGAAGU | -3.58 ± 0.43 | -2.08 ± 0.36
GCGGAGCAAUAUUACGAAUU |  | -1.1 ± 0.33
GCGGAGCAAUAUUACGAGAC | -2.85 ± 0.38 | 
GCGGAGCAAUAUUACGAGCU | -2.02 ± 0.27 | 0.307 ± 0.24
GCGGAGCAAUAUUACGAUGC | -1.81 ± 0.37 | 
GCGGAGCAAUAUUACGAUUA | -2.93 ± 0.22 | -1.73 ± 0.23
GCGGAGCAAUAUUACGCAGU | -3.68 ± 0.45 | -1.79 ± 0.39
GCGGAGCAAUAUUACGCGCA | -2.93 ± 0.3 | -0.701 ± 0.17
GCGGAGCAAUAUUACGCGUA | -2.77 ± 0.29 | -1.53 ± 0.15
GCGGAGCAAUAUUACGGCAA |  | -1.74 ± 0.18
GCGGAGCAAUAUUACGGGGA | -2.69 ± 0.39 | -3.38 ± 0.42
GCGGAGCAAUAUUACGGUUU |  | -2.53 ± 0.39
GCGGAGCAAUAUUACGUAGG | -4.18 ± 0.34 | -0.489 ± 0.15
GCGGAGCAAUAUUACGUGCA | -2.52 ± 0.29 | -0.813 ± 0.18
GCGGAGCAAUAUUACGUUUA |  | -2.33 ± 0.37
GCGGAGCAAUAUUACGUUUG | -2.86 ± 0.17 | -2.48 ± 0.27
GCGUAGCAAUAUUACGAACC |  | -1.63 ± 0.36
GCGUAGCAAUAUUACGACCG | -1.5 ± 0.16 | -0.0305 ± 0.2

Sequence | self-splicing fitness (ln) (30 °C) | self-splicing fitness (ln) (37 °C)
GCGUAGCAAUAUUACGAGAU | -2.22 ± 0.12 | -2.25 ± 0.17
GCGUAGCAAUAUUACGAGUU | -2.87 ± 0.092 | -0.803 ± 0.097
GCGUAGCAAUAUUACGAUUG | -2.26 ± 0.18 | -1.98 ± 0.21
GCGUAGCAAUAUUACGCACA |  | -1.71 ± 0.47
GCGUAGCAAUAUUACGCCUU | -3.7 ± 0.33 | -1.3 ± 0.21
GCGUAGCAAUAUUACGCGAC | -2.5 ± 0.11 | -1.42 ± 0.12
GCGUAGCAAUAUUACGCUUU | -3.68 ± 0.22 | -3.98 ± 0.19
GCGUAGCAAUAUUACGGAAG | -3.56 ± 0.31 | -1.98 ± 0.33
GCGUAGCAAUAUUACGGCCC | 0.00127 ± 0.32 | -2.25 ± 0.39
GCGUAGCAAUAUUACGGGUC | -3.34 ± 0.29 | -1.54 ± 0.21
GCGUAGCAAUAUUACGGUGG | -4.1 ± 0.31 | -3.39 ± 0.39
GCGUAGCAAUAUUACGUAUC | -3.35 ± 0.38 | -0.739 ± 0.2
GCGUAGCAAUAUUACGUGAA | -2.92 ± 0.15 | -1.49 ± 0.13
GCGUAGCAAUAUUACGUGCG | -4.01 ± 0.17 | -1.62 ± 0.14
GCGUAGCAAUAUUACGUUUA | -2.16 ± 0.15 | -2.13 ± 0.15
GCUAAGCAAUAUUACGAAUG | -0.647 ± 0.082 | -0.433 ± 0.11
GCUAAGCAAUAUUACGAAUU | -2.39 ± 0.18 | -0.0664 ± 0.13
GCUAAGCAAUAUUACGACUA | -1.7 ± 0.19 | -0.865 ± 0.23
GCUAAGCAAUAUUACGAGGU | -2.03 ± 0.19 | -1.51 ± 0.15
GCUAAGCAAUAUUACGAGUG | -1.09 ± 0.048 | -0.811 ± 0.06
GCUAAGCAAUAUUACGAGUU | -1.33 ± 0.082 | -0.818 ± 0.11
GCUAAGCAAUAUUACGCAAA | -2.6 ± 0.26 | -0.986 ± 0.17
GCUAAGCAAUAUUACGCAGA | -2.53 ± 0.26 | -0.61 ± 0.21
GCUAAGCAAUAUUACGCAUC | -0.687 ± 0.13 | -1.06 ± 0.21
GCUAAGCAAUAUUACGCGGA | -2.73 ± 0.2 | -1.1 ± 0.15

Sequence | self-splicing fitness (ln) (30 °C) | self-splicing fitness (ln) (37 °C)
GCUAAGCAAUAUUACGCGUG | -1.88 ± 0.092 | -1.44 ± 0.12
GCUAAGCAAUAUUACGCGUU | -1.23 ± 0.083 | -0.649 ± 0.1
GCUAAGCAAUAUUACGCUAU | -1.91 ± 0.14 | -2.08 ± 0.17
GCUAAGCAAUAUUACGCUGU |  | -3.18 ± 0.47
GCUAAGCAAUAUUACGGAAU | -1.68 ± 0.12 | -0.857 ± 0.13
GCUAAGCAAUAUUACGGCAG | -3.28 ± 0.34 | -2.85 ± 0.34
GCUAAGCAAUAUUACGGCGA | -0.936 ± 0.1 | -0.247 ± 0.13
GCUAAGCAAUAUUACGGGUA | -1.32 ± 0.097 | 0.109 ± 0.09
GCUAAGCAAUAUUACGGUCA | -0.887 ± 0.13 | -0.914 ± 0.15
GCUAAGCAAUAUUACGGUGC | -3.38 ± 0.22 | -2.6 ± 0.39
GCUAAGCAAUAUUACGUAAG | -0.616 ± 0.11 | 0.0143 ± 0.15
GCUAAGCAAUAUUACGUACG | -1.67 ± 0.1 | -1.13 ± 0.1
GCUAAGCAAUAUUACGUAGA | -0.845 ± 0.055 | -0.223 ± 0.069
GCUAAGCAAUAUUACGUAGG | -1.34 ± 0.059 | -0.249 ± 0.087
GCUAAGCAAUAUUACGUCAC | -3.38 ± 0.44 | -2.35 ± 0.24
GCUAAGCAAUAUUACGUCCU | -0.847 ± 0.14 | 0.223 ± 0.17
GCUAAGCAAUAUUACGUGAA | -0.92 ± 0.059 | -0.304 ± 0.074
GCUAAGCAAUAUUACGUGCU | -2.4 ± 0.14 | -2.13 ± 0.25
GCUAAGCAAUAUUACGUGGC | -2.87 ± 0.23 | -2.46 ± 0.41
GCUAAGCAAUAUUACGUUAG | -2.7 ± 0.28 | -2.2 ± 0.28
GCUAAGCAAUAUUACGUUCG | -0.791 ± 0.097 | -0.25 ± 0.17
GCUAAGCAAUAUUACGUUGA | -1.97 ± 0.14 | -0.945 ± 0.14
GCUCAGCAAUAUUACGAACU | -0.913 ± 0.068 | -0.48 ± 0.079
GCUCAGCAAUAUUACGAAGA | -0.583 ± 0.12 | -0.863 ± 0.14
GCUCAGCAAUAUUACGAAUG | -1.59 ± 0.12 | -0.636 ± 0.14

Sequence | self-splicing fitness (ln) (30 °C) | self-splicing fitness (ln) (37 °C)
GCUCAGCAAUAUUACGAUCG | -1.02 ± 0.1 | 0.77 ± 0.13
GCUCAGCAAUAUUACGCCAC |  | -1.97 ± 0.47
GCUCAGCAAUAUUACGCCGC | -3.66 ± 0.44 | 
GCUCAGCAAUAUUACGCGGU | -3.01 ± 0.15 | -2.22 ± 0.21
GCUCAGCAAUAUUACGCUAU | -1.61 ± 0.11 | -0.658 ± 0.097
GCUCAGCAAUAUUACGCUCC | -1.05 ± 0.15 | 0.283 ± 0.26
GCUCAGCAAUAUUACGGACC | -0.753 ± 0.1 | -0.186 ± 0.13
GCUCAGCAAUAUUACGGACG | -1.11 ± 0.079 | -0.474 ± 0.11
GCUCAGCAAUAUUACGGCCG | -3.86 ± 0.27 | -2.15 ± 0.27
GCUCAGCAAUAUUACGGCUC | -0.525 ± 0.13 | 0.408 ± 0.17
GCUCAGCAAUAUUACGGGUU | -1.29 ± 0.1 | -1.09 ± 0.1
GCUCAGCAAUAUUACGGUGC | -1.82 ± 0.19 | -1.29 ± 0.16
GCUCAGCAAUAUUACGUAAA | -0.495 ± 0.064 | 0.264 ± 0.086
GCUCAGCAAUAUUACGUAUC | -0.849 ± 0.078 | 0.011 ± 0.077
GCUCAGCAAUAUUACGUCAG | -4.87 ± 0.42 | -3.23 ± 0.16
GCUCAGCAAUAUUACGUGAC | -1.88 ± 0.092 | -1.03 ± 0.11
GCUCAGCAAUAUUACGUGCG | -1.32 ± 0.084 | -0.22 ± 0.1
GCUCAGCAAUAUUACGUGGG | -3.65 ± 0.19 | -1.85 ± 0.16
GCUCAGCAAUAUUACGUGUG | -1.26 ± 0.063 | -0.824 ± 0.074
GCUCAGCAAUAUUACGUUCA | -0.466 ± 0.095 | -0.686 ± 0.12
GCUGAGCAAUAUUACGAACA | -3.44 ± 0.36 | -2.89 ± 0.38
GCUGAGCAAUAUUACGAAUA | -2.55 ± 0.29 | -1.53 ± 0.39
GCUGAGCAAUAUUACGAAUC | -1.15 ± 0.12 | -0.914 ± 0.17
GCUGAGCAAUAUUACGAAUU | -2.46 ± 0.22 | -1.36 ± 0.19
